According to the nanobody polyreactivity screen of Harvey et al. (2022):

Test: yeast display, Sf9 membrane polyspecificity reagent, FACS + sequencing; frameworks hold sequencing errors
Outline: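 Sorting gates, low and high (top ~1%), were placed on anti-HA fluorescence to track expression and on streptavidin fluorescence to track reagent binding. A clone's polyreactivity label is taken from the gate it came out of. The reagent was 10% biotinylated, detergent-solubilized Sf9 membrane, applied for 1 hour at 4 °C to galactose-induced yeast display cells.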

| Sequence | polyreactivity (PSR sort gate) |
| --- | --- |
| QVQLLESGGGLVQAGGSLRLSSAASGSILDHYAMGWYRQAPGNEREFVAAISIRGGSTYYADSVKGRFTISRDNAKNTVFLQMNSLKPEDNAVYYCAATAQYGRDSWSSYRMFPPYDYWGQGTEVTVSS | low polyreactivity |
| QVQLLESGGGLVQAGGSLRLSSMASASILGDRMSWYRQAPGKEHELVATIYDGGISYYADSMKGRFTISRDNAKNTVYLQMNSLRPEDTAVFFCGASFEGYRFHVYCGQGTQVTVSS | low polyreactivity |
| QVQLLESGGGLVQAGGSLRLTCGASGITFSVNTMGWYRQAPGKDRELVAAFTSAGGTYYADSVKGRFTISRDTAKNTVYFQMISQKPEDTAVYYCATPYDIQWASESHDYWGQGTQVTVSS | low polyreactivity |
| QVQLLESGGGLVQAGRSLCLSCAASGSIIINAMGWYRQAPGKERELVATIRWRGGTTYYADSVKGRFTISRDNAKNTVYLQRNSLKPEDTAVYYCAADRSYYPDPRTTYGYNYWGQGTQVTVSS | low polyreactivity |
| QVQLLESGGGLVQAGVSHRLSCASSGFIFTYYAMGWYRQAPGKESELVASISTYGGNTNYADSVKGRFTISRDNAKNTVYIQMNSLIPEDTAVYYCAARIGNQYHTGYPTAGRKYGYWGQGTQVSVSS | high polyreactivity |
| QVQLLESGGGLVQARGSLRLSCAASGITFSRYAMGWYRQAPGKERELVAAITRRGGNTYYADSVKGSFTISRVYAKNTVYLQMNSLKPEDTAVYYCAAGYTYYRGDYWGQGTQVTVSS | high polyreactivity |
| QVQLLESGGGLVQPGGSLRLSCAASGRIFRHSAMGWYRQAPGKERELVAAISGGGGRTYYADSVKGRFTISRDNAKLSVDLQMNSLKPEDTAVYYCAAYRSRHYYYWGHGTQVTVSS | high polyreactivity |
| QVQLLESGGGLVQPGGSLRLSCAASGSIFGRNVMGWYRQAPGKERELVAAISSSGGRTYYADSVKGRFTISRDNAKNNVYLQMNCLKPEDTAVYYCADRYGIKYYYWGQGTQVTVSS | high polyreactivity |
| QVQLLESGGVLVQAGGSLRLSCAASGFTFWYYAMGWYRQAPGKQRELVATITWNVGSTYYADSVKGRFTISRDNAKNTVYIQMNTLKPEDTAVYYCNKSYSRSSYWQYYYWGQGTQVTVSS | low polyreactivity |
| QVQLLESGRGLVQAGGTLRLSCAPSGRTFSVNAMGWYRQAPGKERELVAAISWDGGSTYYADSVKVRFTISRDNAKNTVYLQMNSLKQEDTAVYYCNKDLYYAYDYWGQGTQVTVSS | low polyreactivity |
| QVQLLESGVGKVQAGGRLRLSCAASGSIFLIYAMGWYRQAPGKESELVAAISSGGSKYYADSVNGRFTISRDNAKNTVYLQMNSVKPEDTAVYYCATYSTCVAYHLYYWGQGTQVSVSS | low polyreactivity |
| QVQLLESWGGLVQAGGSLRLSCAASGRTSTRNAMGWYRQAPGNERELVAAISWSGGRTHYADSVKGRFTISRDNAKNTVYLQMNSLKPEDTAVYYCAAAYTGGQKYYSWGQGTEVTVSS | high polyreactivity |
| QVQLLETGGGLVQAGGSLRLSCAASGITFKYYSMGWYRQAPGKERELFATITKRGGSTYYADSVKGRFTISRDNAKNTVYLQMNSLKPVDTAVYYCAAEILIRFWGVQWGGEYWGQGTQVTVSS | high polyreactivity |
| QVQLLETGGVLVQAGGSLRLSCAASGFIFGINAMGWYRQAPGKERELVATITSGGGTNYADSVKGRFTISRDNAKINVYLQMNSLKPEDSAVYYCNAQIAWATYEGDYWGQGTQVTVSS | low polyreactivity |
| QVQLPGSGGGLVQAGGSLRLSCAASGYIFQNVPMGWTRQAPGKERDLVAGIDNGTSTNYADSVNGRFTISRDNAKNTVYLQMNSLKPEDTAVYYCAAAGQADDTLGYWGQGTQVTVSS | low polyreactivity |
| QVQLQDSGGGLVQAGGSLRLSCAASGSISIYGYMGWYRQAPGNERELVAAITAGGSTYYADSVKGRFTISRDNAKNTVYLLMKSLKPEDTAVYYCAPYEQRVYDLHYWGQGTQVTVSS | high polyreactivity |
| QVQLQDSGGGLVQAGGSLRLSCAASGYIFGSGSMGWFRQAPGKERELVATINNGSSTYYADSVKGRFTISRDNAKNTVYLQMNSLKPEDTAVYYCGVFLYRLTFFYYWGQGNQVTVSS | high polyreactivity |
| QVQLQDSGGGLVQAGGSLRLSCAASGYIFGSGSMGWFRQAPGKERELVATINNGSSTYYADSVKGRFTISRDNAKNTVYLQMNSLKPEDTAVYYCNRVGTYHSYDYWGQGTQVTVSS | high polyreactivity |
| QVQLQDSGGGLVQARGSLRPSCAASGTISDGVPMGWYRQAPGEVRELVATTVLGATTNYADSVKGRFTISRGNAKNTVYLQMNSLKPEETAVYYCAAPLRYDKGFSYWGQGTQVTVSS | low polyreactivity |
| QVQLQECGGGLEQAGGSLRLSCAASGTFSNSVKWLYCQARGKEREFVATIGVGGSTNYADSVKGRFTISRDNAKNTVYLQMNSLKPEDTAVYHCAAYGAASNFHYYRGQGTQVTVSS | low polyreactivity |
| QVQLQECGGGLVQAGGSLRLSCAASGNIFDADIMGWYRQAPGKERELVASVSDGGSTNYADSVKGRFTISRDNAKNTVYLQMNSLKPEDTAVYYCAAIVYPDILTYFDYDYDYFYWGQGTQVTVGS | low polyreactivity |
| QVQLQECGGGLVQAGGSLRLSCAASGNIFDADIMGWYSQAPGKERELVDSVTDGGSTNYADSVKGRFTISRDNAKNTVYLQMNSLKPEHTAVYYCAAIVYPDILTYFDYDYDYFYWGQGTQVTVGS | low polyreactivity |

| Sequence | polyreactivity (PSR sort gate) |
| --- | --- |
| QVQLQEGGGGLVQAGGSLRLSCAASGYISYGDVMGWYRQAPGEERELVASIGLDATTNYADSVKGRFTISRDNAKITVYVQMNSLKPEDTAVYYCAADVGSGVLCGYWGQGTQMTVSS | high polyreactivity |
| QVQLQEIGGGLVQAGGSLRLSCAATGSIFVSVTMGWYRQAPGKERELVASIGRGSTTNHADSVKGRFTISRDNAKNIVYLLMNSLKPEDTAVYYCAALESYGKYHGYWGQGTQVTVSS | low polyreactivity |
| QVQLQERAAWCRRAGSLLLSCAASGNISDYYFMGWYRQAPAKERELVAAIAPGSNTYYADSVQGRFTISRDNAKKTVYLQMNSLKPEDTAVCFCAANSTQYTWFDDWGQGTQVPVSS | low polyreactivity |
| QVQLQERGGGLVQAGGSLRLSCAASGYISHADEKGWYRQAPGKEHELVASISNGGCTNYADSEKGRFTISRDNAKNTLYLQMNSLKSEDTAVYYCAAWTGQVDIHYYWGQGTQVTVSS | low polyreactivity |
| QVQLQERGGGLVQAGGSLRLSCAASRIIYADGFMGLYRQAPGKEREFVATITGGGTSNYADSVKGLFTISRDNAKNTVYLQMNSQKPEDTAVYYCAVYFAWTIGFTYWGQGTQVTVSS | high polyreactivity |
| QVQLQERGGGLVQTGGSLSLSCEASGTISYSDSMCWYRQAPRKERELVAAIARGGITNYAYSVKGRFTISRDNAKNTVYLQMNSLKPEDTAVYYCADLSSRYAQFDYWGQGTQVTVSS | low polyreactivity |
| QVQLQESAAGLVQAGGGLRLSCPASGTISGPHVMGWYRQSPGKEREFVAAINVGANTYYADNVKGRFTISRDNAKNTVYLQMNSLKPEDTGVYYCAAVYYGDIGHEYWGQGTQVTVSC | low polyreactivity |
| QVQLQESAGALVQAGGSLRQSYAASGYIFPSLSMGRYRQAPGKEREFVAAIGRGSTNNYADSVKGRFTISRDNANNTAYQQMISLKPEDTAVYYCAAAASQLTRHLYWGQGTQVTVSS | low polyreactivity |
| QVQLQESAGGLVQAGDSQRMSCAASGNSFRFTDMGWYRQAPGKERELVAAINAGSTTYYADSVKGRFTISLDNAKNTVYLQMNSLKPEDTAVYYCAVYYLGSGTFGYWGQGAQVTVSS | high polyreactivity |
| QVQLQESAGGLVQAGGSLSLSCAASGSISRYYDMGWYRQAPGKEREFVAGISGGASTYYADSVKGRFTISRDNAKNTVYLQMNSLKPEDTAVYYCAADTGVYQYHSYWGQGTQVTVSS | low polyreactivity |
| QVQLQESAGLVQAGGLRLSCAASGSVSYQEAMGWYRQAPGKERELVATMSFGANTNYADSVKVRFTISRDNAKNTVYLQMNSLKPEETAVYYCAAESLFDDYYGYWGQGTQVTVSS | low polyreactivity |
| QVQLQESGADLEQAGGSLRLSFTASGTISDVRVMAWYRQAPGKERELVATISYVTITYYADSVKGRFTISRDSEKHRVSADDEPETGRYRGVLLRYYWGLGTQVTVSS | low polyreactivity |
| QVQLQESGAGLLQAGGCLSCTASGTIFGQGDMGWYRQAPGKERELLATINDGASTYYADSVKGRFTISRDKAKNTVYLKKNSLKPDDTAVDYFAVFTDITNYFGYWGQATQVTVSS | low polyreactivity |
| QVQLQESGCGLVQEGGSLRPSCAASGSISEGVPMGWSRQAPGEERELVATTVMGATTNYADSVKGRFTISRGNANNTVYLQMISLKPDETAVYYCAAPLRYDKGFSFWGQGTQVTVSS | low polyreactivity |
| QVQLQESGCRLVQAGGRLRMSCAASGNIIDADIMGWYRQAPGKERELVASITDGRRTNYADSVKGRYTNSRDSEKNTVYMQMNSLKPEDTAVYYCAAIAYPVVPTYFDYDSDYFHWGQGTQVTVSS | high polyreactivity |
| QVQLQESGDGLVQAVGSLRLSCAASGYISGYYNMGWYRQAPGKERELVAGIDAFGSSTNYADCVKGRFTISRDNAKNTVYLEMNSLKPEDTAVYYFAARPYGDRLFSYWGQGTQVTVSS | low polyreactivity |
| QVQLQESGGCLVLAGGSLRLSCAASGYIFDTCPMGWYRQAPGKEREFVASIDHGSNTYYADSVKGRFTISRDSAKNTVYLQMNSLKPEDTAVYYCAVRDDGSYTYGNWGQGTQVTVSS | high polyreactivity |
| QVQLQESGGGLEQAGGSLRLSCAASGYISDIGTMGWYRQAPGKEREFVATIVVGSTTNYADSVKGRFTISRDNAKNTVYLKPESGRYRGVLLRGWLLAVGKFTYWGQGTQETVSS | low polyreactivity |
| QVQLQESGGGLLQAGGTLRLSCAASGSIFGYSGMGWYRQAPGKERELVAGIDYGTITNYADSVKGRFTISRDNAKNTVYLQKYSLKPADTAVYYCATDIHSVHNHRDKHVYDYWGQGTQVTVSS | low polyreactivity |
| QVQLQESGGGLMQAGVSQRLSCAASGSISYYSDMGWYRQAPRKEREFVAGIGYGTTTYYADSVKGRFTTSRDNAKNTVYLQMISMKPEDTAVYYCAAYQGNGYEFYYWGQGTQVTVRS | low polyreactivity |
| QVQLQESGGGLVKAGGSLRLSCAASGNISNHNDMGWYRQAPGKEREFVAGITAGGITNYADSVKGRFTISRDNAKNTGYLQMNSLKPEDTAVYYCAAYPDYAKSYGYWGQGTQATVSS | low polyreactivity |
